In PMC6304784, “Pathological mutations differentially affect the self-assembly and polymerisation of the innate immune system signalling adaptor molecule MyD88” (BMC Biology, 2018):

Target: the molecule itself
Experiment: single-molecule fluorescence fluctuation spectroscopy (brightness B parameter, time-traces, intensity histograms); GFP-tagged protein freely diffusing in the cell-free expression mixture on a confocal microscope, 488-nm laser; dilution series of the DNA template giving 0 to about 320 nM protein; mutants compared at 150 nM; samples diluted 10 times in buffer A

Protein	average brightness B (> 150 nM) relative to monomeric sfGFP [fold over monomeric GFP]
GFP-tagged MyD88 death domain (residues 1-117, includes part of the intermediate domain) (domain or fragment, human, UniProt Q99836 1-117, looked up, MyD88 death domain with the crucial part of the intermediate domain, residues 1-117; also called DD; death domain alone; source: in vitro translated in Leishmania tarentolae extract (LTE), measured without purification; not shown: GFP, N-terminal, kept) MAAGGPGAGSAAPVSSTSSLPLAALNMRVRRRLSLFLNVRTQVAADWTALAEEMDFEYLEIRQLETQADPTGRLLDAWQGRPGASVGRLLELLTKLGRDDVLLELGPSIEEDCQKYI	~8
GFP-tagged MyD88 TIR domain (residues 159-296) (domain or fragment, human, UniProt Q99836 159-296, looked up, MyD88 TIR domain, residues 159-296; also called TIR domain alone; source: in vitro translated in Leishmania tarentolae extract (LTE), measured without purification; not shown: GFP, N-terminal, kept) ERFDAFICYCPSDIQFVQEMIRQLEQTNYRLKLCVSDRDVLPGTCVWSIASELIEKRCRRMVVVVSDDYLQSKECDFQTKFALSLSPGAHQKRLIPIKYKAMKKEFPSILRFITVCDYTNPCTKSWFWTRLAKALSLP	~4
